Test results published in the RNAGym collection of RNA variant scans (doi:10.1073/pnas.2313332121).
Variants at the floor of the assay were thinned out.

B1: TPR 5TU (parent)
chain: GGAUCUUCUCGAUCUAACAAAAAAGACAAAUCUGCCACAAAGCUUGAGAGCAUCUUCGGAUGCAGAGGCGGCAGCCUUCGGUGGCGCGAUAGCGCCAACGUUCUCAACUAUGACACGCAAAACGCGUGCUCCGUUGAAUGGAGUUUAUCAUG

Variants of: B1
Experiment: polymerase ribozyme fitness, log enrichment relative to wild type (log ratio); higher = more active; in vitro selection for triplet polymerase activity
In short: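 To select mutant libraries of each subunit of a heterodimeric triplet polymerase ribozyme, built by PCR and transcribed, each was annealed with a biotinylated primer, partner subunit and triplets, then incubated frozen at −7 °C. Extended constructs were gel-excised, captured on streptavidin beads and amplified by RT-PCR, in one round carried out in triplicate. Illumina sequencing of input and output libraries kept genotypes with ≥10 input reads and ≥1 read per output. Fitness is the base-2 logarithm of genotype enrichment relative to wild-type enrichment, from inverse-variance-weighted replicate averages.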

Which “polymerase ribozyme fitness (log ratio)” value does the source give for G94C G143A here?
Its value is -1.86.

For A40G U109G, which “polymerase ribozyme fitness (log ratio)” value is on record?
The value was -3.14.

With U4G G48A U77G G83C U135A as the variant, how does the “polymerase ribozyme fitness (log ratio)” value read?
Its value is at most -4.2.

With U13G A23U A26C C36A C57A G86U C95U A121C as the variant, how does the “polymerase ribozyme fitness (log ratio)” value read?
The value was at most -4.2.

Which “polymerase ribozyme fitness (log ratio)” value does the source give for U44G here?
The value was -3.7.

With C54G G141A as the variant, how does the “polymerase ribozyme fitness (log ratio)” value read?
Its value is -1.35.

With C43A C54U as the variant, how does the “polymerase ribozyme fitness (log ratio)” value read?
The value was at most -4.2.

For A60G G83A U127G G136A A142G, which “polymerase ribozyme fitness (log ratio)” value is on record?
The value was -3.28.

For U9G C35U G48U U56G A60C G74A C96G U104G A107U, which “polymerase ribozyme fitness (log ratio)” value is on record?
Its value is at most -4.2.

Which “polymerase ribozyme fitness (log ratio)” value does the source give for U6G A52C C96G A115G here?
The value was -3.74.

With C54U G58A C93U as the variant, how does the “polymerase ribozyme fitness (log ratio)” value read?
Its value is -1.1.

Which “polymerase ribozyme fitness (log ratio)” value does the source give for C85G G128A here?
Its value is at most -4.2.

Which “polymerase ribozyme fitness (log ratio)” value does the source give for A106C A107G here?
Its value is -4.18.

Which “polymerase ribozyme fitness (log ratio)” value does the source give for G42C A49C A52C C75U C85U A91U here?
Its value is at most -4.2.

Which “polymerase ribozyme fitness (log ratio)” value does the source give for A16C C32A A49U U102G C129G here?
The value was at most -4.2.

Which “polymerase ribozyme fitness (log ratio)” value does the source give for U4G A22U U148C here?
The value was -3.08.

With G92A C114U as the variant, how does the “polymerase ribozyme fitness (log ratio)” value read?
Its value is -3.92.

Which “polymerase ribozyme fitness (log ratio)” value does the source give for A52G A66C G67C G141C here?
The value was at most -4.2.

For C27U A52G U53A C118G, which “polymerase ribozyme fitness (log ratio)” value is on record?
Its value is -2.63.

With A24G A40U U61C A137C A142C as the variant, how does the “polymerase ribozyme fitness (log ratio)” value read?
The value was at most -4.2.

For C38U A89U C114U, which “polymerase ribozyme fitness (log ratio)” value is on record?
Its value is -2.12.

Which “polymerase ribozyme fitness (log ratio)” value does the source give for G140C G143U here?
The value was -3.7.

Which “polymerase ribozyme fitness (log ratio)” value does the source give for A17G C93G C108G here?
Its value is -4.11.

With A40C A89U C96U C114U G128C U145G as the variant, how does the “polymerase ribozyme fitness (log ratio)” value read?
The value was at most -4.2.

With C5G G152C as the variant, how does the “polymerase ribozyme fitness (log ratio)” value read?
The value was -2.87.

For G59U A60U C85A, which “polymerase ribozyme fitness (log ratio)” value is on record?
Its value is -2.59.

Which “polymerase ribozyme fitness (log ratio)” value does the source give for A47C G58U C99A here?
The value was -2.46.

Which “polymerase ribozyme fitness (log ratio)” value does the source give for C5U A22U C69A G88U here?
Its value is at most -4.2.

For G59A G71U G84U G92A A115G C118G U144C C149G, which “polymerase ribozyme fitness (log ratio)” value is on record?
Its value is at most -4.2.

For C57G C85A C118U G143C, which “polymerase ribozyme fitness (log ratio)” value is on record?
The value was -4.1.

Which “polymerase ribozyme fitness (log ratio)” value does the source give for U45A A66U C76U C85G C129A here?
The value was at most -4.2.

For A20U G62C G71A G117U U135G, which “polymerase ribozyme fitness (log ratio)” value is on record?
Its value is at most -4.2.

For A21U A28C G34U A39G, which “polymerase ribozyme fitness (log ratio)” value is on record?
Its value is at most -4.2.

Which “polymerase ribozyme fitness (log ratio)” value does the source give for C14G G84A C85G A106G here?
Its value is at most -4.2.

For G42C A52G U55A U56A G68A, which “polymerase ribozyme fitness (log ratio)” value is on record?
The value was at most -4.2.

Which “polymerase ribozyme fitness (log ratio)” value does the source give for A16G C99U here?
Its value is -1.33.

Which “polymerase ribozyme fitness (log ratio)” value does the source give for U4C C69G G141U A147U here?
Its value is -1.91.

With U7A C93U A115G as the variant, how does the “polymerase ribozyme fitness (log ratio)” value read?
Its value is at most -4.2.

With A26C G92U A106G as the variant, how does the “polymerase ribozyme fitness (log ratio)” value read?
The value was -0.538.

For G80A G94C C125A G143A, which “polymerase ribozyme fitness (log ratio)” value is on record?
Its value is at most -4.2.

With A49U C51U C79A A120G C123A as the variant, how does the “polymerase ribozyme fitness (log ratio)” value read?
The value was at most -4.2.

With C14A A49C G59C G62A A91U G100A C114U A137G U146C as the variant, how does the “polymerase ribozyme fitness (log ratio)” value read?
The value was at most -4.2.

With A52U U53A G58U as the variant, how does the “polymerase ribozyme fitness (log ratio)” value read?
Its value is -0.762.

With A16U G50A G92U A98G C132G A142U as the variant, how does the “polymerase ribozyme fitness (log ratio)” value read?
Its value is at most -4.2.

Which “polymerase ribozyme fitness (log ratio)” value does the source give for A29G G34A U56A C75U here?
Its value is at most -4.2.

For A89C C93U U135A, which “polymerase ribozyme fitness (log ratio)” value is on record?
The value was -3.55.

For A47C A89G A97U C131G, which “polymerase ribozyme fitness (log ratio)” value is on record?
The value was at most -4.2.

Which “polymerase ribozyme fitness (log ratio)” value does the source give for U15A U55A C99G here?
The value was -1.2.

For U7C C38A, which “polymerase ribozyme fitness (log ratio)” value is on record?
Its value is -2.38.

With C118U G124U A142C as the variant, how does the “polymerase ribozyme fitness (log ratio)” value read?
The value was -1.96.

Which “polymerase ribozyme fitness (log ratio)” value does the source give for G50U A64G here?
The value was at most -4.2.

With C10U A89U C95U as the variant, how does the “polymerase ribozyme fitness (log ratio)” value read?
The value was -4.15.

For A29C C57U U104G G128U, which “polymerase ribozyme fitness (log ratio)” value is on record?
Its value is at most -4.2.

With A21U A29C A89C U130C G140U G141A as the variant, how does the “polymerase ribozyme fitness (log ratio)” value read?
Its value is at most -4.2.

With A3G C8G C35A U90G C95U C116G G152A as the variant, how does the “polymerase ribozyme fitness (log ratio)” value read?
The value was -4.12.

With C10G A37G C51G A107G U145C U148G as the variant, how does the “polymerase ribozyme fitness (log ratio)” value read?
Its value is at most -4.2.

With C35U A52C G58U G59C G70U C85A G152U as the variant, how does the “polymerase ribozyme fitness (log ratio)” value read?
The value was at most -4.2.

With U56C C87U A110G as the variant, how does the “polymerase ribozyme fitness (log ratio)” value read?
Its value is -3.04.

Which “polymerase ribozyme fitness (log ratio)” value does the source give for G136C here?
The value was -2.62.

For C63U G83C C85G C105A A110C, which “polymerase ribozyme fitness (log ratio)” value is on record?
Its value is at most -4.2.

With C35A A47C as the variant, how does the “polymerase ribozyme fitness (log ratio)” value read?
Its value is -3.11.

Which “polymerase ribozyme fitness (log ratio)” value does the source give for C38A U61A A97G C123U here?
The value was -1.68.

Which “polymerase ribozyme fitness (log ratio)” value does the source give for A17G C75A C87A A91C A115U G140U here?
Its value is at most -4.2.

For A40U A52G G65A G70A G128U, which “polymerase ribozyme fitness (log ratio)” value is on record?
The value was at most -4.2.

With C57U A73G G143U U145G as the variant, how does the “polymerase ribozyme fitness (log ratio)” value read?
The value was at most -4.2.

Which “polymerase ribozyme fitness (log ratio)” value does the source give for G34C C93A A106U here?
The value was at most -4.2.

For C54U G59C A64C G94U A120G, which “polymerase ribozyme fitness (log ratio)” value is on record?
Its value is at most -4.2.

For G68U C79G G84A C105U A147U, which “polymerase ribozyme fitness (log ratio)” value is on record?
Its value is at most -4.2.

For G25C A37C C76A U101G U148G, which “polymerase ribozyme fitness (log ratio)” value is on record?
Its value is at most -4.2.

With C108U G117U A120G as the variant, how does the “polymerase ribozyme fitness (log ratio)” value read?
Its value is -3.18.

For A29U G59C A64G C96G U104C U109G, which “polymerase ribozyme fitness (log ratio)” value is on record?
The value was at most -4.2.

For C96A A138U G140U, which “polymerase ribozyme fitness (log ratio)” value is on record?
Its value is at most -4.2.

Which “polymerase ribozyme fitness (log ratio)” value does the source give for U31C C51A G74U G84A C87A A113G A115C here?
The value was at most -4.2.

For G50C A52C C118G, which “polymerase ribozyme fitness (log ratio)” value is on record?
Its value is -3.55.

With U56C C87G as the variant, how does the “polymerase ribozyme fitness (log ratio)” value read?
Its value is at most -4.2.

For G50A G74U G83A C85G G126U C149A, which “polymerase ribozyme fitness (log ratio)” value is on record?
The value was at most -4.2.

With A30U C38U G50C U56G G83U A137C as the variant, how does the “polymerase ribozyme fitness (log ratio)” value read?
The value was at most -4.2.

Which “polymerase ribozyme fitness (log ratio)” value does the source give for U61A C69A G86U G117C A119G here?
Its value is -3.92.

For G71A A91G C93U, which “polymerase ribozyme fitness (log ratio)” value is on record?
The value was at most -4.2.

With A66G C87A as the variant, how does the “polymerase ribozyme fitness (log ratio)” value read?
Its value is at most -4.2.

With G58C C96G C125G G143U as the variant, how does the “polymerase ribozyme fitness (log ratio)” value read?
Its value is at most -4.2.

For C10U A19U C32G G80A G88U A115G U146A, which “polymerase ribozyme fitness (log ratio)” value is on record?
The value was at most -4.2.

Which “polymerase ribozyme fitness (log ratio)” value does the source give for A3C C10A U82C here?
The value was -2.75.

For C18U A19G G50A C54U G67C C69A G92C C114A A120U U134G, which “polymerase ribozyme fitness (log ratio)” value is on record?
Its value is at most -4.2.
